Patent publication US20260015399A1 (Boehringer Ingelheim, published 2026)
*1 amine or outer side, *2 acyl side, *3 side chain or, on linkers, in order; H or OH if unused. Side-chain parts run from the residue outwards. The star is where a group is joined. C18 diacid = O=C(O)CCCCCCCCCCCCCCCCC(=O)*; γGlu = O=C(O)[C@H](CCC(=O)[*:2])N[*:1]; Isovaleryl = CC(C)CC(=O)*; Ahx = NCCCCCC(=O)O

T1: human NPY2 receptor (human, UniProt P49146 1-381)
T1 sequence (looked up): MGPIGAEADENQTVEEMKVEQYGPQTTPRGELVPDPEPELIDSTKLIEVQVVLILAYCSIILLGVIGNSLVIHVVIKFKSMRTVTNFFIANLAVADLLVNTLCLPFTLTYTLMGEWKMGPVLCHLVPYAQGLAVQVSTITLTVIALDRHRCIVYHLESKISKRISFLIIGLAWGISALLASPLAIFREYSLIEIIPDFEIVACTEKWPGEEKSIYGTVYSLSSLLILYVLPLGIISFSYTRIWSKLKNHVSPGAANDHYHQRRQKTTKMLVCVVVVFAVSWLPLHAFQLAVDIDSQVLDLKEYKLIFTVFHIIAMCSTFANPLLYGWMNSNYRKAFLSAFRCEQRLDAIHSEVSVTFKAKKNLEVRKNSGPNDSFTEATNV

T2: human NPY5 receptor (human, UniProt Q15761 1-445)
T2 sequence (looked up): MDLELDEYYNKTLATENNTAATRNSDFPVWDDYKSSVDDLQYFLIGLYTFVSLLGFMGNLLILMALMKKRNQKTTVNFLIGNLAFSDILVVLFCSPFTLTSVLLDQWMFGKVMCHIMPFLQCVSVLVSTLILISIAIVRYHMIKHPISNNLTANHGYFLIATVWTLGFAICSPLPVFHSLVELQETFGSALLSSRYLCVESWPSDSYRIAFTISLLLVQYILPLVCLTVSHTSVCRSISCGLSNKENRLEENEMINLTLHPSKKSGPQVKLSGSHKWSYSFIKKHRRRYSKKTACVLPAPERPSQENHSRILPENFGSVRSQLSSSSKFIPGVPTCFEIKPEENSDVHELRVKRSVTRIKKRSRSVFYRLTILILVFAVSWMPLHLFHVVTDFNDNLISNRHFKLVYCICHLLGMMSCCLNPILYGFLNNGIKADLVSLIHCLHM

B1: Compound 79 (peptide)
peptide: Isovaleryl-APEK([Ahx-γGlu-C18 diacid])PEEDASPEELQRYYVSLRHYYNWLTRQRY-NH2
SMILES: CC(C)CC(=O)N[C@@H](C)C(=O)N1CCC[C@H]1C(=O)N[C@@H](CCC(=O)O)C(=O)N[C@@H](CCCCNC(=O)CCCCCNC(=O)CC[C@H](NC(=O)CCCCCCCCCCCCCCCCC(=O)O)C(=O)O)C(=O)N1CCC[C@H]1C(=O)N[C@@H](CCC(=O)O)C(=O)N[C@@H](CCC(=O)O)C(=O)N[C@@H](CC(=O)O)C(=O)N[C@@H](C)C(=O)N[C@@H](CO)C(=O)N1CCC[C@H]1C(=O)N[C@@H](CCC(=O)O)C(=O)N[C@@H](CCC(=O)O)C(=O)N[C@@H](CC(C)C)C(=O)N[C@@H](CCC(N)=O)C(=O)N[C@@H](CCCNC(=N)N)C(=O)N[C@@H](Cc1ccc(O)cc1)C(=O)N[C@@H](Cc1ccc(O)cc1)C(=O)N[C@H](C(=O)N[C@@H](CO)C(=O)N[C@@H](CC(C)C)C(=O)N[C@@H](CCCNC(=N)N)C(=O)N[C@@H](Cc1c[nH]cn1)C(=O)N[C@@H](Cc1ccc(O)cc1)C(=O)N[C@@H](Cc1ccc(O)cc1)C(=O)N[C@@H](CC(N)=O)C(=O)N[C@@H](Cc1c[nH]c2ccccc12)C(=O)N[C@@H](CC(C)C)C(=O)N[C@H](C(=O)N[C@@H](CCCNC(=N)N)C(=O)N[C@@H](CCC(N)=O)C(=O)N[C@@H](CCCNC(=N)N)C(=O)N[C@@H](Cc1ccc(O)cc1)C(N)=O)[C@@H](C)O)C(C)C
B2: Compound 91 (peptide)
peptide: Isovaleryl-APEK([Ahx-γGlu-C18 diacid])PEEDAEPEELQRYYTSLRHYYHWLTRQRY-NH2
SMILES: CC(C)CC(=O)N[C@@H](C)C(=O)N1CCC[C@H]1C(=O)N[C@@H](CCC(=O)O)C(=O)N[C@@H](CCCCNC(=O)CCCCCNC(=O)CC[C@H](NC(=O)CCCCCCCCCCCCCCCCC(=O)O)C(=O)O)C(=O)N1CCC[C@H]1C(=O)N[C@@H](CCC(=O)O)C(=O)N[C@@H](CCC(=O)O)C(=O)N[C@@H](CC(=O)O)C(=O)N[C@@H](C)C(=O)N[C@@H](CCC(=O)O)C(=O)N1CCC[C@H]1C(=O)N[C@@H](CCC(=O)O)C(=O)N[C@@H](CCC(=O)O)C(=O)N[C@@H](CC(C)C)C(=O)N[C@@H](CCC(N)=O)C(=O)N[C@@H](CCCNC(=N)N)C(=O)N[C@@H](Cc1ccc(O)cc1)C(=O)N[C@@H](Cc1ccc(O)cc1)C(=O)N[C@H](C(=O)N[C@@H](CO)C(=O)N[C@@H](CC(C)C)C(=O)N[C@@H](CCCNC(=N)N)C(=O)N[C@@H](Cc1c[nH]cn1)C(=O)N[C@@H](Cc1ccc(O)cc1)C(=O)N[C@@H](Cc1ccc(O)cc1)C(=O)N[C@@H](Cc1c[nH]cn1)C(=O)N[C@@H](Cc1c[nH]c2ccccc12)C(=O)N[C@@H](CC(C)C)C(=O)N[C@H](C(=O)N[C@@H](CCCNC(=N)N)C(=O)N[C@@H](CCC(N)=O)C(=O)N[C@@H](CCCNC(=N)N)C(=O)N[C@@H](Cc1ccc(O)cc1)C(N)=O)[C@@H](C)O)[C@@H](C)O
B3: Compound 145 (peptide)
peptide: Isovaleryl-APAK([Ahx-γGlu-C18 diacid])PEEDASPEELQRYYVSLRHYYNWLTRQRY-NH2
SMILES: CC(C)CC(=O)N[C@@H](C)C(=O)N1CCC[C@H]1C(=O)N[C@@H](C)C(=O)N[C@@H](CCCCNC(=O)CCCCCNC(=O)CC[C@H](NC(=O)CCCCCCCCCCCCCCCCC(=O)O)C(=O)O)C(=O)N1CCC[C@H]1C(=O)N[C@@H](CCC(=O)O)C(=O)N[C@@H](CCC(=O)O)C(=O)N[C@@H](CC(=O)O)C(=O)N[C@@H](C)C(=O)N[C@@H](CO)C(=O)N1CCC[C@H]1C(=O)N[C@@H](CCC(=O)O)C(=O)N[C@@H](CCC(=O)O)C(=O)N[C@@H](CC(C)C)C(=O)N[C@@H](CCC(N)=O)C(=O)N[C@@H](CCCNC(=N)N)C(=O)N[C@@H](Cc1ccc(O)cc1)C(=O)N[C@@H](Cc1ccc(O)cc1)C(=O)N[C@H](C(=O)N[C@@H](CO)C(=O)N[C@@H](CC(C)C)C(=O)N[C@@H](CCCNC(=N)N)C(=O)N[C@@H](Cc1c[nH]cn1)C(=O)N[C@@H](Cc1ccc(O)cc1)C(=O)N[C@@H](Cc1ccc(O)cc1)C(=O)N[C@@H](CC(N)=O)C(=O)N[C@@H](Cc1c[nH]c2ccccc12)C(=O)N[C@@H](CC(C)C)C(=O)N[C@H](C(=O)N[C@@H](CCCNC(=N)N)C(=O)N[C@@H](CCC(N)=O)C(=O)N[C@@H](CCCNC(=N)N)C(=O)N[C@@H](Cc1ccc(O)cc1)C(N)=O)[C@@H](C)O)C(C)C
B4: Compound 146 (peptide)
peptide: Isovaleryl-APEK([Ahx-γGlu-C18 diacid])PEEEATPEELQRYYVSLRHYYNWLTRQRY-NH2
SMILES: CC(C)CC(=O)N[C@@H](C)C(=O)N1CCC[C@H]1C(=O)N[C@@H](CCC(=O)O)C(=O)N[C@@H](CCCCNC(=O)CCCCCNC(=O)CC[C@H](NC(=O)CCCCCCCCCCCCCCCCC(=O)O)C(=O)O)C(=O)N1CCC[C@H]1C(=O)N[C@@H](CCC(=O)O)C(=O)N[C@@H](CCC(=O)O)C(=O)N[C@@H](CCC(=O)O)C(=O)N[C@@H](C)C(=O)N[C@H](C(=O)N1CCC[C@H]1C(=O)N[C@@H](CCC(=O)O)C(=O)N[C@@H](CCC(=O)O)C(=O)N[C@@H](CC(C)C)C(=O)N[C@@H](CCC(N)=O)C(=O)N[C@@H](CCCNC(=N)N)C(=O)N[C@@H](Cc1ccc(O)cc1)C(=O)N[C@@H](Cc1ccc(O)cc1)C(=O)N[C@H](C(=O)N[C@@H](CO)C(=O)N[C@@H](CC(C)C)C(=O)N[C@@H](CCCNC(=N)N)C(=O)N[C@@H](Cc1c[nH]cn1)C(=O)N[C@@H](Cc1ccc(O)cc1)C(=O)N[C@@H](Cc1ccc(O)cc1)C(=O)N[C@@H](CC(N)=O)C(=O)N[C@@H](Cc1c[nH]c2ccccc12)C(=O)N[C@@H](CC(C)C)C(=O)N[C@H](C(=O)N[C@@H](CCCNC(=N)N)C(=O)N[C@@H](CCC(N)=O)C(=O)N[C@@H](CCCNC(=N)N)C(=O)N[C@@H](Cc1ccc(O)cc1)C(N)=O)[C@@H](C)O)C(C)C)[C@@H](C)O
B5: Compound 147 (peptide)
peptide: Isovaleryl-APEK([Ahx-γGlu-C18 diacid])PEEDASPEEIQRYYVSLRHYYNWLTRQRY-NH2
SMILES: CC[C@H](C)[C@H](NC(=O)[C@H](CCC(=O)O)NC(=O)[C@H](CCC(=O)O)NC(=O)[C@@H]1CCCN1C(=O)[C@H](CO)NC(=O)[C@H](C)NC(=O)[C@H](CC(=O)O)NC(=O)[C@H](CCC(=O)O)NC(=O)[C@H](CCC(=O)O)NC(=O)[C@@H]1CCCN1C(=O)[C@H](CCCCNC(=O)CCCCCNC(=O)CC[C@H](NC(=O)CCCCCCCCCCCCCCCCC(=O)O)C(=O)O)NC(=O)[C@H](CCC(=O)O)NC(=O)[C@@H]1CCCN1C(=O)[C@H](C)NC(=O)CC(C)C)C(=O)N[C@@H](CCC(N)=O)C(=O)N[C@@H](CCCNC(=N)N)C(=O)N[C@@H](Cc1ccc(O)cc1)C(=O)N[C@@H](Cc1ccc(O)cc1)C(=O)N[C@H](C(=O)N[C@@H](CO)C(=O)N[C@@H](CC(C)C)C(=O)N[C@@H](CCCNC(=N)N)C(=O)N[C@@H](Cc1c[nH]cn1)C(=O)N[C@@H](Cc1ccc(O)cc1)C(=O)N[C@@H](Cc1ccc(O)cc1)C(=O)N[C@@H](CC(N)=O)C(=O)N[C@@H](Cc1c[nH]c2ccccc12)C(=O)N[C@@H](CC(C)C)C(=O)N[C@H](C(=O)N[C@@H](CCCNC(=N)N)C(=O)N[C@@H](CCC(N)=O)C(=O)N[C@@H](CCCNC(=N)N)C(=O)N[C@@H](Cc1ccc(O)cc1)C(N)=O)[C@@H](C)O)C(C)C
B6: Compound 172 (peptide)
peptide: Isovaleryl-APEK([Ahx-γGlu-C18 diacid])PPEDASPEEIQRYYVSLRHYYNWLTRQRY-NH2
SMILES: CC[C@H](C)[C@H](NC(=O)[C@H](CCC(=O)O)NC(=O)[C@H](CCC(=O)O)NC(=O)[C@@H]1CCCN1C(=O)[C@H](CO)NC(=O)[C@H](C)NC(=O)[C@H](CC(=O)O)NC(=O)[C@H](CCC(=O)O)NC(=O)[C@@H]1CCCN1C(=O)[C@@H]1CCCN1C(=O)[C@H](CCCCNC(=O)CCCCCNC(=O)CC[C@H](NC(=O)CCCCCCCCCCCCCCCCC(=O)O)C(=O)O)NC(=O)[C@H](CCC(=O)O)NC(=O)[C@@H]1CCCN1C(=O)[C@H](C)NC(=O)CC(C)C)C(=O)N[C@@H](CCC(N)=O)C(=O)N[C@@H](CCCNC(=N)N)C(=O)N[C@@H](Cc1ccc(O)cc1)C(=O)N[C@@H](Cc1ccc(O)cc1)C(=O)N[C@H](C(=O)N[C@@H](CO)C(=O)N[C@@H](CC(C)C)C(=O)N[C@@H](CCCNC(=N)N)C(=O)N[C@@H](Cc1c[nH]cn1)C(=O)N[C@@H](Cc1ccc(O)cc1)C(=O)N[C@@H](Cc1ccc(O)cc1)C(=O)N[C@@H](CC(N)=O)C(=O)N[C@@H](Cc1c[nH]c2ccccc12)C(=O)N[C@@H](CC(C)C)C(=O)N[C@H](C(=O)N[C@@H](CCCNC(=N)N)C(=O)N[C@@H](CCC(N)=O)C(=O)N[C@@H](CCCNC(=N)N)C(=O)N[C@@H](Cc1ccc(O)cc1)C(N)=O)[C@@H](C)O)C(C)C

Legend:
human NPY2 receptor [1] = molecular target: T1, human NPY2 receptor; test: cell-based or functional assay
human NPY5 receptor = molecular target: T2, human NPY5 receptor; test: cell-based or functional assay
human NPY2 receptor [2] = molecular target: T1, human NPY2 receptor; test: RLB: displacement of 125I-PYY(1-36) from hNPY2R membranes

Binder	EC50, HTRF cAMP Gi assay (human NPY2 receptor [1]) [nM]	EC50, HTRF cAMP Gi assay (human NPY5 receptor) [nM]	Ki (human NPY2 receptor [2]) [nM]
B1	0.076	> 5000	1.54
B2	0.219	5000	4.64
B3	0.118	> 5000	5.29
B4	0.13	> 5000	8.93
B5	0.146	> 5000	5.04
B6	0.079	> 5000	0.81
